# US20170224780A1 (priority 2014, published 2017)
# B1: rAMH: Anti-mullerian hormone, protein designated by NCBI Accession No. P03971; recombinant AMH (rAMH) (protein, UniProt P03971 452-560, looked up)
# Muellerian-inhibiting factor: SAGATAADGPCALRELSVDLRAERSVLIPETYQANNCQGVCGWPQSDRNPRYGNHVVLLLKMQVRGAALARPPCCVPTAYAGKLLISLSEERISAHHVPNMVATECGCR
# How the values were obtained:
# [1] = tested on: marmoset ovarian cortical tissues (grafts); assay: Xenotransplantation of frozen-thawed marmoset ovarian cortical strips into castrated SCID mice with rAMH treatment (OTCP-TP model); format: in vivo
# Source text: Five healthy adult female marmoset monkeys (Callithrix jacchus) at the age range of 13 to 23 months were made available for ovaries excision. Fresh bovine ovaries were collected from lactating milking cows, ages 1.5-3 years (n=12). Ovarian human tissues were harvested from eight donors (age range 13-26 years).
# Cortical tissue strips were obtained from marmoset (n=15), bovine (n=15) and human (n=46). The cortical tissue was obtained by removal of the underlying stromal tissue. Slow freezing cryopreservation was performed according to previously published protocols. Briefly, tissue fragments were equilibrated with 0.1M sucrose and 1.5M DMSO for 30 minutes following introduction into the cryopreservation device. A multi-gradient slow freezing protocol cooled the samples to −150° C. following by storage in liquid nitrogen (LN).
# Prior to transplantation, tissues were thawed rapidly by equilibrating the samples in decreasing DMSO gradient solutions in 0.1M sucrose and cut into 2×3×2 mm pieces (Marmoset, n=29: n=15 for transplantation experiment and n=14 for transplantation+AMH experiment; Bovine, n=37; Human, n=46). Fresh thawed cortex from each experiment was embedded in […] and further studied.
# Seven-weeks-old castrated male immunodeficient mice (n=60) were used as recipient animals. Mice were castrated at 4 weeks and maintained at 28° C. under controlled SPF conditions. Xenotransplantation experiments commenced at least 2-weeks post-orchidectomy.
# Ovarian tissue transplantation surgical procedures were performed as described previously. Briefly, a longitudinal incision was made in the dorsum of the anesthetized recipient mouse, the skin was lifted and the ovarian cortical strips were inserted subcutaneously. Size of transplanted tissue from all species was 2×3×2 mm. Each graft was attached in place with a 6-0 non-absorbable prolene suture. Transplanted tissues were recovered after three (3) or seven (7) days.
# In a separate experiment, frozen marmoset cortical tissues were thawed, 2×3×2 mm cortical strips were prepared (n=14) and transplanted into castrated SCID mice as described above. rAMH, diluted in PBS, was injected (10 μg in 200 μl, per mouse, i.p.) at the time of transplantation and once daily for 3 consecutive days at 10 μg per mouse, while control mice were injected with PBS. Daily injection protocol was determined according to preliminary experiments using labeled rAMH and rAMH dosage was initially determined according to previous studies.
# As the first set of experiments indicated maximal follicle activation and PMF loss in all species (in the absence of AMH) at three days post transplantation, the animals were sacrificed three days post transplantation. The grafts were removed and processed for histological follicle counting analysis and immunohistochemistry.
# Recovered grafts and control frozen thawed non transplanted samples were fixed in 4% paraformaldehyde, embedded in paraffin and serial 5 μm sections were prepared from the whole grafts for follicle counts and immunohistochemistry. Follicle classification as primordial or growing was performed on every sixth section of Hematoxylin and Eosin stained sections by two independent observers under a light-microscope (slides/graft: 8 for Marmoset, 9 for Bovine, 6 for Human). Only non-atretic follicles with clearly visible oocyte circled by granulosa-cell layers were referred to in results since no significant difference was found in the number of atretic follicles among the groups. […]
# [2] = tested on: ovaries from 12-day-old neonatal mice; format: cell-based
# [3] = tested on: ovaries from 12-day-old neonatal mice; assay: In-vitro culture of whole ovaries incubated with cisplatin with or without AMH, follicle counting; format: cell-based; settings: day 4 and day 7 in culture; results not shown
# Description: Ovaries from 12-day-old neonatal mice were further incubated with a different chemotherapy agent-cisplatin, with or without AMH. Control ovaries were cultured with medium alone or with AMH. Ovaries were removed after day 4 and day 7 in culture and processed for histological analysis. The number of primordial and growing follicles was counted. Primordial follicle count in the presence of AMH and cisplatin is higher than in the presence of cisplatin alone (results not shown).
molecule,measurement,setting,value
B1,collagen levels (Sirius red staining),"[1]; grafts three days post transplantation, both transplanted groups had a marked increase vs untransplanted control",no effect
same,"PMF (primordial follicle) count, mean follicle count per section±SE","[1]; marmoset grafts three days post transplantation, rAMH 10 μg per mouse i.p. at transplantation and once daily for 3 days, transplanted control 7.66±6.99, untransplanted control 148±37.06, p<0.001",56.33±12.12
same,additionally saved PMF compared to transplanted control,"[1]; marmoset grafts three days post transplantation, rAMH 10 μg per mouse i.p. daily",86.40%
same,GF/PMF ratio (growing to primordial follicles),"[1]; transplanted + rAMH group compared to untransplanted control, ratio significantly increased in transplanted control, FIG. 4B",normalized
same,"Ki-67 expressing proliferating cells (immunofluorescence, Z-stack reconstruction)",[1]; transplanted grafts with vs without rAMH administration,Major reduction
same,"numbers of primordial follicles, PM together with AMH relative to PM alone",[2],significantly greater numbers
same,"primordial or growing follicle numbers, AMH alone vs regular media alone",[2],No difference
same,"ratio of growing to dormant follicles, PM+AMH vs PM alone",[2],significantly improved
same,"primordial follicle count, AMH and cisplatin vs cisplatin alone",[3],higher
